Where a chain is given by its changes, count along the chain named.

Assay [1] deals with T1, human MCP-2 (human), P80075.
T1 chain: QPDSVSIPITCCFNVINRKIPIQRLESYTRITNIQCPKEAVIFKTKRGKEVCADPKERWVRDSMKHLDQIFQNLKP
Description: 125I-MCP-2 binding to CCR2 on THP-1 cells, radio-ligand competition.

In assay [2] the target is T2, human monocyte chemoattractant protein-1 (MCP-1) (human), P13500. Description: SET, BioVeris, Fab, rh MCP-1.
Assay [3] addresses T2, human monocyte chemoattractant …. Description: 125I-MCP-1 binding to THP-1 cells, radio-ligand competition.
The target is the same in assay [4]. Description: cell-based or functional assay.
Assay [5] has the same target. Put plainly: SET, IGEN (BioVeris).
Assay [6] has the same target. Description: SET, BioVeris, IgG1, rh MCP-1.
The target in assay [7] is cynomolgus monkey MCP-1 (cynomolgus monkey), P61274. Put plainly: SET, BioVeris, cyno MCP-1.
For assay [8] the target is unchanged. Description: SET, BioVeris, IgG1, cyno MCP-1.

T2 sequence (P13500 other isoform, or with tags, fused parts or gaps, form in doubt): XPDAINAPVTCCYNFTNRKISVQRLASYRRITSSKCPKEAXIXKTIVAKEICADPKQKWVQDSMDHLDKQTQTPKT
cynomolgus monkey MCP-1 (cynomolgus monkey), P61274, sequence (P61274 24-99 limits assumed): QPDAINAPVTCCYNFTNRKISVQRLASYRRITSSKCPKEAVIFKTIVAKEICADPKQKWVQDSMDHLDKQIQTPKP

B1: MOR03754 Fab (Fab)
chain 1: QVQLVESGGGLVQPGGSLRLSCAASGFTFRSYGMSWVRQAPGKGLEWVSSIEHKWSGYATTYAASVKGRFTISRDNSKNTLYLQMNSLRAEDTAVYYCARFEFTPWTYFDFWGQGTLVTVSS
chain 2: DIELTQPPSVSVAPGQTARISCSGDNLGKKYVYWYQQKPGQAPVLVIYDDDNRPSGIPERFSGSNSGNTATLTISGTQAEDEADYYCQSYTAQSSASFGGGTKLTVL
modifications: not checked
As for B1, the IC50 (commonly the concentration that inhibits the measured activity by half) in assay [1] is over 2000 nM.

B2: MOR03790 Fab (Fab, V domains shown)
VH: QVELVQSGAEVKKPGSSVKVSCKASGGTFSSYGISWVRQAPGQGLEWMGGIIPIFGTANYAQKFQGRVTITADESTSTAYMELSSLRSEDTAVYYCARYDGIYGELDFWGQGTLVTVSS
VL: not shown
Consider B2, for which the Kd in assay [2] and in assay [5] was 0.12 nM in each case. Moreover, the IC50 in assay [3] was 0.26 nM. The molecule further registered an Inhibition of Ca2+ Mobilization IC50 in assay [4] of 25 nM.

B3: MOR03850 Fab (Fab, V domains shown)
VH: B2 VH with G50A, I52N, I54L, F55A, T57H, A58T, N59H
VL: not shown
As for B3, the dissociation constant (Kd) in assay [2] and in assay [5] was 0.04 nM in each case. This molecule also displayed an IC50 in assay [3] of 0.16 nM. For the same molecule, the Inhibition of Ca2+ Mobilization IC50 in assay [4] is 28.4 nM.

B4: MOR03790 IgG1 (antibody, V domains shown)
VH: B2 VH
VL: not shown
As for B4, in assay [3], the IC50 worked out at 0.03 nM. For the same molecule, the Inhibition of Ca2+ Mobilization IC50 in assay [4] stood at 4.26 nM. For the same molecule, the Kd in assay [5] and in assay [6] was 0.07 nM throughout.

B5: MOR03850 IgG1 (antibody)
chain 1: B2 VH with G50A, I52N, I54L, F55A, T57H, A58T, N59H
chain 2: not shown
modifications: not checked
Turning to B5, the IC50 in assay [3] was found to be 0.05 nM. The Kd (commonly the constant that tells how readily two partners part at equilibrium) came out at 0.01 nM in assay [7], 0.021 nM in assay [8], 0.01 nM in assay [5] and 0.011 nM in assay [6]. In assay [4], this molecule registered an Inhibition of Ca2+ Mobilization IC50 of 9.47 nM.

B6: MOR03781 Fab (Fab, V domains shown)
VH: B2 VH
VL: not shown
Consider B6, for which the Kd in assay [2] and in assay [5] was 0.03 nM in each case. This molecule also returned an IC50 in assay [3] of 0.18 nM. This molecule had an Inhibition of Ca2+ Mobilization IC50 in assay [4] of 21.8 nM.

B7: MOR03781 IgG1 (antibody, V domains shown)
VH: B2 VH
VL: not shown
In assay [3], B7 yielded a concentration for half-maximal inhibition (IC50) of 0.02 nM. This molecule came in with an Inhibition of Ca2+ Mobilization IC50 in assay [4] of 10.9 nM. The dissociation constant Kd in assay [5] and in assay [6] was 0.02 nM throughout.
